The term Kd denotes a measure of binding affinity in units of concentration. Read a low Kd as a tighter complex. What is called koff is the rate constant with which the complex falls apart. The low end stands for a long-lived complex, the high end for a short-lived complex. A word on the kon: it is the rate constant with which the complex forms. A low value points to slow association. By stoichiometry N is commonly meant a count of units in the complex or per binding partner.

In assay [1] the target is myc-tagged β^+/his6-tagged β^C heterodimer (E. coli) (UniProt P0A988). Briefly: SPR.
The target of assay [2] is β^+–δ1 complex (his6-tagged β^+ homodimer with one tightly bound δ) (E. coli) (UniProt P0A988). Briefly: SPR. For orientation: SPR reads the build-up and loss of mass on a sensor chip optically.

Substance “DnaX clamp loader complex, γ3δδ′χψ form (from UniProt P06710-2;P28630;P28631;P28905;P28632)” showed an off rate relative to that from β^+ in assay [1] of 2 fold.

On to “α catalytic subunit of Pol III (from UniProt P10443 1-1160) (enzyme)”, for which, in assay [1], the Kd is 172 nM, the off-rate (koff) was determined as 0.0125 s⁻¹ and the kon is 72700 M⁻¹ s⁻¹.

Consider “δ subunit of the DnaX clamp loader complex (from UniProt P28630 1-343) (natural protein)”, for which the dissociation constant (Kd) in assay [2] came to 160 nM. In assay [1], this substance gave a Kd of 15.6 nM and a stoichiometry N of 1.

Source of the values: paper PMC2685083.
